Assay results from US10647775B2.

Key:
PD-L1-Fc (human) = PD-L1-Fc (human) (UniProt Q9NZQ7); test: phage ELISA, target-Fc against non-specific control (IgG1-Fc)
KIR-Fc = test: as above
[1] = target: CD47-Fc (Homo sapiens (Human)) (UniProt Q08722); test: as above
[2] = target: PD1-Fc (Homo sapiens (Human)) (UniProt Q15116); test: as above
[3] = target: recombinant, biotinylated, Human 4-1BB/TNFRSF9/CD137-Fc (human) (UniProt Q07011); test: as above
[4] = target: recombinant, biotinylated, Human 4-1BB/TNFRSF9/CD137-Fc (human) (UniProt Q07011); test: phage ELISA of rescued clones
[5] = target: recombinant, biotinylated, Human 4-1BB/TNFRSF9/CD137-Fc (human) (UniProt Q07011); test: phage ELISA, CD137-Fc against control IgG Fc
IgG Fc (control) = test: phage ELISA of rescued clones on control IgG Fc
[6] = target: DR5-Fc (Homo sapiens (Human)) (UniProt O14763); test: phage ELISA, target-Fc against non-specific control (IgG1-Fc)
DR5-Fc (Homo sapiens (Human)), sequence (O14763 56-182 limits assumed): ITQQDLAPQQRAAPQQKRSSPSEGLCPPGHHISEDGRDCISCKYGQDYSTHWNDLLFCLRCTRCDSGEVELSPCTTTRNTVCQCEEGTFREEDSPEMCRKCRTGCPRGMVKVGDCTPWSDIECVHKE

[7] = target: TIM3-Fc (Homo sapiens (Human)) (UniProt Q8TDQ0); test: as above
[8] = target: CTLA4-Fc (Homo sapiens (Human)) (UniProt P16410); test: as above
CTLA4-Fc (Homo sapiens (Human)), sequence (P16410 37-162 limits assumed): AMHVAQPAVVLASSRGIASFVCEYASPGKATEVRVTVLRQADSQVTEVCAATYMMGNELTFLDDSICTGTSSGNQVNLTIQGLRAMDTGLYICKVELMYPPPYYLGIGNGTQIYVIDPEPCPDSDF

PD-L1-Fc (human), sequence (Q9NZQ7 19-239 limits assumed): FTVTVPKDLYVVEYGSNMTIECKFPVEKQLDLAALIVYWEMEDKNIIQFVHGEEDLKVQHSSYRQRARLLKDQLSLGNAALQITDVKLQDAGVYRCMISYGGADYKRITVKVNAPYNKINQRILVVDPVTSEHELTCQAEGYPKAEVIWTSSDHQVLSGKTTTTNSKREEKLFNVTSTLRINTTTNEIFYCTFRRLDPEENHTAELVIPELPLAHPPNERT
PD1-Fc (Homo sapiens (Human)), sequence (Q15116 25-167 limits assumed): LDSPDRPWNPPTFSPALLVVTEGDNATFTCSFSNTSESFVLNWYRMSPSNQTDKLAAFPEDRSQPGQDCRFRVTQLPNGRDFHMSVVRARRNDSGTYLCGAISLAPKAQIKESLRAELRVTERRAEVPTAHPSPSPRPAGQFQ
CD47-Fc (Homo sapiens (Human)), sequence (Q08722 19-139 limits assumed): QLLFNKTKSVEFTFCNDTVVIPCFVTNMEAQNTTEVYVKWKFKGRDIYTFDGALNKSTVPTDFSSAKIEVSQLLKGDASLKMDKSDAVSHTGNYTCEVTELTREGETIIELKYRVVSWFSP
recombinant, biotinylated, Human 4-1BB/TNFRSF9/CD137-Fc (human), sequence (Q07011 24-186 limits assumed): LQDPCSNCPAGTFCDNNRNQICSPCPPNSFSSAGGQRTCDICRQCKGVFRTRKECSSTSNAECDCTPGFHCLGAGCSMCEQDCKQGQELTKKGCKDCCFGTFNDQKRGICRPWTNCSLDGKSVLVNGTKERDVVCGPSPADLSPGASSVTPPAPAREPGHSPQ

B1: DBDpp of SEQ ID NO: 38 (designed binder)
chain: MGSWTEFQSRLDAIHSRLRALGGSEAELAAFEKEIAAFESELQAYKGKGNPEVELLRDDAAFIRHFLQAYRHN
- ELISA ratio (target to background) (PD-L1-Fc (human)): 8.68

B2: DBDpp of SEQ ID NO: 42 (designed binder)
chain: MGSWYEFESRLDAIHERLHALGGSEAELAAFEKEIAAFESELQAYKGKGNPEVENLRGDAAFIRHFLQAYRHN
- ELISA ratio (target to background) (PD-L1-Fc (human)): 4.88

B3: DBDpp of SEQ ID NO: 40 (designed binder)
chain: MGSWYEFQNRLHAIHERLNALGGSEAELAAFEKEIAAFESELQAYKGKGNPEVELLRDDAAFIRHFLQAYRHN
- ELISA ratio (target to background) (PD-L1-Fc (human)): 6.34

B4: DBDpp of SEQ ID NO: 43 (designed binder)
chain: MGSWYEFNHRLDAISKRLNALGGSEAELAAFEKEIAAFESELQAYKGKGNPEVEELRGDAAFIRHFLQAYRHN
- ELISA ratio (target to background) (PD-L1-Fc (human)): 2.98

B5: DBDpp of SEQ ID NO: 39 (designed binder)
chain: MGSWQEFDDRLNAIKARLQALGGSEAELAAFEKEIAAFESELQAYKGKGNPEVEDLRDDAAFIRRFLQAYRHN
- ELISA ratio (target to background) (PD-L1-Fc (human)): 7.41

B6: DBDpp of SEQ ID NO: 37 (designed binder)
chain: MGSWLWFKIFLAEIKYFLEALGGSEAELAAFDFEIHAFHVELFAYKGKGNPEVEVLREVAAEIRWDLQAYRHN
- ELISA ratio (target to background) (KIR-Fc): 4.17

B7: DBDpp of SEQ ID NO: 20 (designed binder)
chain: MGSWYEFDLRLHAIYDRLVALGGSEAELAAFEKEIAAFESELQAYKGKGNPEVEILRDNAAYIRQMLQAYRHN
- ELISA ratio (target to background) [1]: 14.1

B8: DBDpp of SEQ ID NO: 22 (designed binder)
chain: MGSWAEFDHRLHAIRERLHALGGSEAELAAFEKEIAAFESELQAYKGKGNPEVEILRGNAAYIRALLQAYRHN
- ELISA ratio (target to background) [1]: 11.7

B9: DBDpp of SEQ ID NO: 36 (designed binder)
chain: MGSWYEFYNRLYAIEIRLYALGGSEAELAAFEKEIAAFESELQAYKGKGNPEVERLRVRAAKIRVILQAYRHN
- ELISA ratio (target to background) (KIR-Fc): 4.24

B10: DBDpp of SEQ ID NO: 48 (designed binder)
chain: MGSWYAFKDYLADIKGWLEALGGSEAELAFFEIFIARFELELQAYKGKGNPEVEALRKEAAAIRDELQAYRHN
- ELISA ratio (target to background) [2]: 3.29

B11: DBDpp of SEQ ID NO: 16 (designed binder)
chain: MGSWFEFNHRLWAINERLYALGGSEAELAAFEKEIAAFESELQAYKGKGNPEVERLRSMAAFIRYKLQAYRHN
- ELISA ratio (target to background) [3]: 11.9

B12: DBDpp of SEQ ID NO: 41 (designed binder)
chain: MGSWFEFQDRLTAINERLSALGGSEAELAAFEKEIAAFESELQAYKGKGNPEVETLRSDAAFIRRFLQAYRHN
- ELISA ratio (target to background) (PD-L1-Fc (human)): 6.01

B13: bb10 (designed binder)
chain: MGSWAEFKQRLAAIKTRLEALGGSEAELAAFLGEIWAFEMELAAYKGKGNPEVEALGREAAAIRMELQAYRHN
- ELISA absorbance (average) [4]: 0.353
- ELISA ratio (target to background) [5]: 5.27
- ELISA absorbance (average) (IgG Fc (control)): 0.067

B14: DBDpp of SEQ ID NO: 26 (designed binder)
chain: MGSWNYFKDHLAWIKNSLEALGGSEAELAHFETAIASFERQLQEYKGKGNPEVEALRKEAAAIRDELQAYRHN
- ELISA ratio (target to background) [6]: 13

B15: DBDpp of SEQ ID NO: 27 (designed binder)
chain: MGSWLYFKEHLAHIKAWLEALGGSEAELAHFELAIADFEYHLQEYKGKGNPEVEALRKEAAAIRDELQAYRHN
- ELISA ratio (target to background) [6]: 12.3

B16: DBDpp of SEQ ID NO: 30 (designed binder)
chain: MGSWHYFKDHLAEIKGLLEALGGSEAELAHFEMAIADFEHNLQYYKGKGNPEVEALRKEAAAIRDELQAYRHN
- ELISA ratio (target to background) [6]: 11.4

B17: DBDpp of SEQ ID NO: 29 (designed binder)
chain: MGSWFYFKQHLAWIKSYLEALGGSEAELAHFERAIAAFEQHLQMYKGKGNPEVEALRKEAAAIRDELQAYRHN
- ELISA ratio (target to background) [6]: 11.8

B18: DBDpp of SEQ ID NO: 34 (designed binder)
chain: MGSWWLFKDHLAEIKTALEALGGSEAELAHFEMAIAAFEKQLQYYKGKGNPEVEALRKEAAAIRDELQAYRHN
- ELISA ratio (target to background) [6]: 9.75

B19: DBDpp of SEQ ID NO: 31 (designed binder)
chain: MGSWHYFKGHLAEIKNHLEALGGSEAELAHFERAIAAFERSLQWYKGKGNPEVEALRKEAAAIRDELQAYRHN
- ELISA ratio (target to background) [6]: 10.8

B20: DBDpp of SEQ ID NO: 15 (designed binder)
chain: MGSWYEFSMRLWAIDQRLYALGGSEAELAAFEKEIAAFESELQAYKGKGNPEVEALRAKAAYIRWKLQAYRHN
- ELISA ratio (target to background) [3]: 12

B21: DBDpp of SEQ ID NO: 14 (designed binder)
chain: MGSWYEFRHRLWAIDQRLYALGGSEAELAAFEKEIAAFESELQAYKGKGNPEVEGLREAAAFIRAKLQAYRHN
- ELISA ratio (target to background) [3]: 13

B22: DBDpp of SEQ ID NO: 13 (designed binder)
chain: MGSWVEFANRLWAIDQRLFALGGSEAELAAFEKEIAAFESELQAYKGKGNPEVEHLRDQAAFIRHKLQAYRHN
- ELISA ratio (target to background) [3]: 16.1

B23: DBDpp of SEQ ID NO: 12 (designed binder)
chain: MGSWVEFGHRLWAIDQRLYALGGSEAELAAFEKEIAAFESELQAYKGKGNPEVEKLRQRAAFIRFRLQAYRHN
- ELISA ratio (target to background) [3]: 20.6

B24: DBDpp of SEQ ID NO: 17 (designed binder)
chain: MGSWYEFGHRLWAIDQRLYALGGSEAELAAFEKEIAAFESELQAYKGKGNPEVEYLRETAAHIRTRLQAYRHN
- ELISA ratio (target to background) [3]: 7.71

B25: DBDpp of SEQ ID NO: 18 (designed binder)
chain: MGSWYEFHYRLHAIDQRLYALGGSEAELAAFEKEIAAFESELQAYKGKGNPEVEELRIKAAFIRDRLQAYRHN
- ELISA ratio (target to background) [3]: 7.26

B26: DBDpp of SEQ ID NO: 35 (designed binder)
chain: MGSWSEFYNRLDAIESRLLALGGSEAELALFEIQIARFEKVLQAYKGKGNPEVEALRGEARAIFAELYAYRHN
- ELISA ratio (target to background) (KIR-Fc): 8.4

B27: DBDpp of SEQ ID NO: 44 (designed binder)
chain: MGSWFEFENRLHAIVHRLGALGGSEAELAAFEKEIAAFESELQAYKGKGNPEVETLRADAAFIRHYLQAYRHN
- ELISA ratio (target to background) (PD-L1-Fc (human)): 2.76

B28: DBDpp of SEQ ID NO: 45 (designed binder)
chain: MGSWVVFKVDLATIKYILEALGGSEAELAEFEGEIAGFEYSLQFYKGKGNPEVEALRKEAAAIRDELQAYRHN
- ELISA ratio (target to background) [7]: 5.79

B29: DBDpp of SEQ ID NO: 28 (designed binder)
chain: MGSWVYFKEHLAWIKTELEALGGSEAELAHFEHSIADFEMSLQFYKGKGNPEVEALRKEAAAIRDELQAYRHN
- ELISA ratio (target to background) [6]: 12.1

B30: DBDpp of SEQ ID NO: 32 (designed binder)
chain: MGSWIYFKEHLAYIKKELEALGGSEAELAHFESAIAVFESTLQYYKGKGNPEVEALRKEAAAIRDELQAYRHN
- ELISA ratio (target to background) [6]: 10.7

B31: DBDpp of SEQ ID NO: 33 (designed binder)
chain: MGSWTYFKEHLAEIKYMLEALGGSEAELAHFEVAIADFEKMLQYYKGKGNPEVEALRKEAAAIRDELQAYRHN
- ELISA ratio (target to background) [6]: 10.3

B32: DBDpp of SEQ ID NO: 25 (designed binder)
chain: MGSWHEFHDRLQAIHERLYALGGSEAELAAFEKEIAAFESELQAYKGKGNPEVESLRIAAAHIRQVLQAYRHN
- ELISA ratio (target to background) [8]: 2.95

B33: DBDpp of SEQ ID NO: 21 (designed binder)
chain: MGSWTEFTYRLSAIEWRLWALGGSEAELAWFEQKIAFFEDFLQYYKGKGNPEVEALKHEAGAILNELMAYRHN
- ELISA ratio (target to background) [1]: 12.5

B34: DBDpp of SEQ ID NO: 47 (designed binder)
chain: MGSWVMFKWLLADIKSHLEALGGSEAELAFFEGFIAAFETHLQVYKGKGNPEVEALRKEAAAIRDELQAYRHN
- ELISA ratio (target to background) [2]: 8.13

B35: DBDpp of SEQ ID NO: 46 (designed binder)
chain: MGSWTIFKEWLAFIKTDLEALGGSEAELAFFEGWIASFEMELQKYKGKGNPEVEALRKEAAAIRDELQAYRHN
- ELISA ratio (target to background) [2]: 17.1

B36: DBDpp of SEQ ID NO: 23 (designed binder)
chain: MGSWTEFVGRLAAIEFRLWALGGSEAELAWFEAHIAFFEDYLQWYKGKGNPEVEALREEAGAIMEELKAYRHN
- ELISA ratio (target to background) [1]: 8.23

B37: DBDpp of SEQ ID NO: 24 (designed binder)
chain: MGSWTEFYSRLEAIWVRLQALGGSEAELAMFEDRIAHFEWFLQQYKGKGNPEVEALHEEAIAIRKELAAYRHN
- ELISA ratio (target to background) [1]: 4.58
